Experimental data published in patent WO2012172495A1 (dated 2012).

How the values were obtained:
[1] = target: T1, purified recombinant hTEM8(ED)-Fc fusion protein, biotinylated (human, UniProt Q9H6X2 33-321, biotinylated (site not stated)); test: ELISA, Fab on biotinylated human TEM8-Fc
T1 construct: also called human TEM8-Fc
T1 sequence: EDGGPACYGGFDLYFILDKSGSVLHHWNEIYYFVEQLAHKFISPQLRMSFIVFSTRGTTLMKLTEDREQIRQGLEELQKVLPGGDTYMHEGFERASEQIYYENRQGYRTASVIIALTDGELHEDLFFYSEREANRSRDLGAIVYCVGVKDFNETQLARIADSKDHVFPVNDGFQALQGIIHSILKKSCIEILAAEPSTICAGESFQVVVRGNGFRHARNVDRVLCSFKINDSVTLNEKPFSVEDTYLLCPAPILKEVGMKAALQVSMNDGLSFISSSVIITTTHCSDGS

[2] = target: T2, human TEM8 on transfected HEK-293 cells (293/Flag-hTEM8) (human, UniProt Q9H6X2 33-564); test: immunofluorescence microscopy, 10 ug/ml Fab on HEK-293 cells transfected with human TEM8, against untransfected HEK-293
T2 construct: also called HEK-293 transfected with human TEM8

B1: L5 Fab fragment (Anti-human TEM8_cl4) (Fab, V domains shown)
VH: QVQLVESGGGLVQPGGSLRLSCAASGFTFNSYGLSWVRQAPGKGLEWVSNISSNGSYTYYADSVKGRFTISRDNSKNTLYLQMNSLRAEDTAVYYCARAGYGLFDVWGQGTLVTVSS
VL: DIELTQPPSVSVAPGQTARISCSGDKLREYYVHWYQQKPGQAPVLVIYGDNKRPSGIPERFSGSNSGNTATLTISGTQAEDEADYYCSSWAGSRSGTVFGGGTKLTVL
notes: Tested as a purified Fab fragment; The light chain is lambda
binding result [1]: binds | binding result [2]: binds
